± gives the standard error. For part of these data: This sample holds only a part of the variants without activity.
B1: glmS ribozyme (parent)
chain: AUAAAAGCGCCAGAACUACAGAAAUGUAGUUGACGAGGAGGAGGUUUAUCGAAUUUUCGGCGGAUGCCUCCAAA

Legend:
Conditions in all cases: with glucosamine-6-phosphate
glucosamine-6-phosphate [1] = variants of: B1; assay: kcat; higher = faster cleavage; RNA array
How it was run: (§1)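 In situ transcription by E. coli RNA polymerase produced barcoded ribozyme variants on sequenced MiSeq chips, and a hybridised Cy3 probe tracked them at 37 °C. Glucosamine-6-phosphate was flowed in at 40 μM to 10 mM in HEPES/KCl/Mg(OAc)2 buffer. kcat and KM were taken from weighted Michaelis–Menten fits of kobs values from exponential decay fits.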

glucosamine-6-phosphate [2] = variants of: B1; assay: self-cleavage kobs at 640 uM GlcN6P; higher = faster cleavage; RNA array
How it was run: as §1

glucosamine-6-phosphate [3] = variants of: B1; assay: self-cleavage kobs at 2500 uM GlcN6P; higher = faster cleavage; RNA array
How it was run: as §1

glucosamine-6-phosphate [4] = variants of: B1; assay: self-cleavage kobs at 10000 uM GlcN6P; higher = faster cleavage; RNA array
How it was run: as §1

glucosamine-6-phosphate [5] = variants of: B1; assay: KM; higher = weaker cofactor use; RNA array
How it was run: as §1

glucosamine-6-phosphate [6] = variants of: B1; assay: self-cleavage kobs at 160 uM GlcN6P; higher = faster cleavage; RNA array
How it was run: as §1

glucosamine-6-phosphate [7] = variants of: B1; assay: self-cleavage kobs at 40 uM GlcN6P; higher = faster cleavage; RNA array
How it was run: as §1

| Variant | kcat (glucosamine-6-phosphate [1]) [s⁻¹] | self-cleavage kobs at 640 uM GlcN6P (glucosamine-6-phosphate [2]) [s⁻¹] | self-cleavage kobs at 2500 uM GlcN6P (glucosamine-6-phosphate [3]) [s⁻¹] | self-cleavage kobs at 10000 uM GlcN6P (glucosamine-6-phosphate [4]) [s⁻¹] | KM (glucosamine-6-phosphate [5]) [µM] | self-cleavage kobs at 160 uM GlcN6P (glucosamine-6-phosphate [6]) [s⁻¹] | self-cleavage kobs at 40 uM GlcN6P (glucosamine-6-phosphate [7]) [s⁻¹] |
| --- | --- | --- | --- | --- | --- | --- | --- |
| C16G G37A | 0.000832 ± 0.00041 | 3.76e-05 ± 1.2e-05 | 0.000292 ± 6.6e-05 | 0.000396 ± 4.9e-05 | – | – | – |
| U31G G37A | 0.00148 ± 0.00038 | 0.000144 ± 2.8e-05 | 0.000466 ± 7.3e-05 | 0.000999 ± 0.00019 | 5250 ± 1900 | 6.42e-05 ± 1.6e-05 | – |
| G13A C70G | 3.04e-05 ± 1.3e-05 | 5.03e-05 ± 1.9e-05 | 5.41e-05 ± 1.5e-05 | – | – | – | – |
| U57A C70U | 0.000272 ± 5.5e-05 | 5.92e-05 ± 7.8e-06 | 0.000133 ± 1.9e-05 | 0.000234 ± 3.8e-05 | 2300 ± 790 | 5.07e-05 ± 2.3e-05 | – |
| U57A C70A | 1.98e-05 ± 3.5e-06 | – | – | – | – | – | – |
| A15C G41U | 0.000171 ± 7.6e-06 | 7.33e-05 ± 2.3e-05 | 0.000137 ± 3.4e-05 | 0.000154 ± 2.6e-05 | 879 ± 120 | – | – |
| U30C G66A C67U | 6.3e-05 ± 4e-06 | – | 2.96e-05 ± 1.2e-05 | 4.86e-05 ± 1e-05 | 2940 ± 580 | – | – |
| C10U A33U | 4.38e-05 ± 4e-06 | – | 4.07e-05 ± 1.2e-05 | 3.99e-05 ± 6.2e-06 | – | – | < 1e-05 |
| A36G U69A | 1.02e-05 ± 2.2e-06 | – | – | – | – | – | – |
| A64G U65A | 0.00547 ± 0.00084 | 0.00133 ± 0.00024 | 0.00387 ± 0.00065 | 0.00429 ± 0.00072 | 1850 ± 410 | 0.000381 ± 7.6e-05 | 0.000129 ± 2.2e-05 |
| U30A G32A | 0.00147 ± 0.00062 | 0.000192 ± 3.2e-05 | 0.000485 ± 9.6e-05 | 0.0012 ± 0.00022 | – | 0.000109 ± 2.5e-05 | – |
| C61G C70G | 1.85e-05 ± 5.6e-06 | – | – | – | – | – | – |
| A14U G41C | 8.09e-05 ± 1.1e-06 | – | 4.2e-05 ± 1.3e-05 | 6.58e-05 ± 1.4e-05 | 2290 ± 95 | – | – |
| G44A C71U | 9.17e-05 ± 8.5e-06 | 2.9e-05 ± 1e-05 | 7.37e-05 ± 9.8e-06 | 7.95e-05 ± 9.2e-06 | 1020 ± 370 | – | – |
| G51A U54A G59A C68G | 2.9e-05 ± 7.6e-06 | – | – | – | – | – | – |
| A6U | 0.000447 ± 1.4e-05 | 8.33e-05 ± 1.6e-06 | 0.00022 ± 4e-06 | 0.000346 ± 6.3e-06 | 2740 ± 150 | 2.53e-05 ± 2.3e-06 | – |
| C10U C16U | 1.06e-05 ± 1.7e-06 | – | – | – | – | – | – |
| A6G A14C | 0.000105 ± 2.8e-06 | – | 5.24e-05 ± 8.1e-06 | 8.29e-05 ± 7.7e-06 | 2620 ± 210 | – | – |
| C16U A33U C71G | 2.09e-05 ± 7.7e-06 | – | – | – | – | – | – |
| A39C G44U | 4.89e-05 ± 4.8e-06 | – | – | 3.48e-05 ± 8.8e-06 | 4080 ± 1200 | – | – |
